Measured values published in the supplement of paper PMC10724198.
± gives the standard deviation of the averaged measurements.
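Further: PSI is a weighted mean of sequencing reads over stability bins, variants kept only with over 10 reads, mCherry proximal and sfGFP distal, peptide attached via GGGS linker.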

The sequences below were run on Saccharomyces cerevisiae (assay: protein stability index of tFT-peptide fusion (C-terminal peptide) (PSI (0-1 scale)); higher = more stable (slower turnover)). Conditions: genetic background: wild type; temperature: 30 C.
For PREVGVYQQIRD, the protein stability index was 0.63 ± 0.019. PRFFCSGSSPLR was tested, and the protein stability index was 0.721 ± 0.026. PRFSFSGLPLPP was tested, and the protein stability index was 0.681 ± 0.11. With PRFSLFSTDHYY the protein stability index was 0.679 ± 0.16. PRGFVHLPPPYT was tested, and the protein stability index was 0.756 ± 0.12. Sequence PRGHLDEFCVVL has a protein stability index of 0.705 ± 0.019. PRGHPPIPPPLP was tested, and the protein stability index was 0.69 ± 0.035. For PRGPPTPPLTSP, the protein stability index was 0.669 ± 0.043. In the case of PRGWAGGQITPR, the protein stability index is reported as 0.686 ± 0.03. With PRGYSASPNLTS the protein stability index was 0.716 ± 0.023. For PRIIPRLARPQS, the protein stability index was 0.69 ± 0.014. For PRIKWKIQIIKK, the protein stability index was 0.668 ± 0.011. In the case of PRLPPPPTPPLP, the protein stability index is reported as 0.649 ± 0.16. Work on PRLPRRTTTIHG yielded a protein stability index of 0.71 ± 0.035. PRLSPPRSPSPP showed a protein stability index of 0.665 ± 0.0091. PRLSSPAATSPP gave a protein stability index of 0.709 ± 0.012. In the case of PRPAPHTGPSPG, the protein stability index is reported as 0.613 ± 0.029. For PRPCASALPPHP, the protein stability index was 0.712 ± 0.051. Sequence PRPCLPPDPPPS has a protein stability index of 0.654 ± 0.0071. In the case of PRPDSRTRLPRP, the protein stability index is reported as 0.661 ± 0.019. PRPGSTTPPAYR was tested, and the protein stability index was 0.7163 ± 0.0053. Sequence PRPLTRPVPPLS has a protein stability index of 0.68 ± 0.13. For PRPNGLSTDDLE, the protein stability index was 0.729 ± 0.056. With PRPPANILPSAP the protein stability index was 0.713 ± 0.07. Sequence PRPPHLPPPVPS has a protein stability index of 0.7299 ± 0.0016. PRPPLPLFPSSL gave a protein stability index of 0.723 ± 0.048. Sequence PRPPPHPPPSPL has a protein stability index of 0.50931 ± 0.00043. With PRPPPLPPPLPL the protein stability index was 0.5773 ± 0.0032. PRPRLPVLPSPS showed a protein stability index of 0.641 ± 0.098. Sequence PRPRPSPLPPPS has a protein stability index of 0.751 ± 0.13. In the case of PRPSPFIGLPFP, the protein stability index is reported as 0.749 ± 0.067. Sequence PRQAPPSLPSPP has a protein stability index of 0.697 ± 0.076. PRRFPCRLRLGF showed a protein stability index of 0.702 ± 0.074. For PRSPARPPFPTP, the protein stability index was 0.6835 ± 0.0049. PRSPPCPLPPPL was tested, and the protein stability index was 0.65 ± 0.11. Work on PRSRSHPLCSAP yielded a protein stability index of 0.813 ± 0.062. Work on PRSSVPATPHRR yielded a protein stability index of 0.72 ± 0.031. PRSTWPFRLFVR showed a protein stability index of 0.531 ± 0.053. Work on PRTAAFDSLLPT yielded a protein stability index of 0.688 ± 0.036. Work on PRVRSPLLSPPQ yielded a protein stability index of 0.606 ± 0.017. In the case of PRYSVRGQPRET, the protein stability index is reported as 0.728 ± 0.0061. For PSAFQCQWKTSA, the protein stability index was 0.6383 ± 0.0014. In the case of PSAPFPPVYPLH, the protein stability index is reported as 0.687 ± 0.017. Work on PSARASSRTAPS yielded a protein stability index of 0.661 ± 0.015. For PSASYLPCRSKL, the protein stability index was 0.7474 ± 0.0046. Work on PSCPAPPAARPL yielded a protein stability index of 0.74 ± 0.11. In the case of PSCYDPCSPPPH, the protein stability index is reported as 0.723 ± 0.047. In the case of PSDGCSPSSTGN, the protein stability index is reported as 0.696 ± 0.076. Work on PSEFGAGYVMGG yielded a protein stability index of 0.71 ± 0.017. PSELGAGYVMGG gave a protein stability index of 0.6936 ± 0.0034. PSFHASSLSWFS gave a protein stability index of 0.745 ± 0.039. PSFLLPPLPPPT was tested, and the protein stability index was 0.718 ± 0.0086. PSHPPRHCPPAA showed a protein stability index of 0.6628 ± 0.0024. Work on PSHQRVRGLPSL yielded a protein stability index of 0.697 ± 0.041. PSLLFHPAPFFP showed a protein stability index of 0.756 ± 0.085. For PSLLHPPLPTSP, the protein stability index was 0.657 ± 0.036. In the case of PSLLSMHSFSLC, the protein stability index is reported as 0.68 ± 0.014. With PSLPFPPSPPPC the protein stability index was 0.7067 ± 0.0022. PSLPLSPLSDSR gave a protein stability index of 0.717 ± 0.032. Work on PSLPPAYPSIAI yielded a protein stability index of 0.737 ± 0.067. PSLSDPLAPPQG showed a protein stability index of 0.757 ± 0.089. PSLSPYPLQPRY showed a protein stability index of 0.751 ± 0.034. With PSLTLPPSPRFP the protein stability index was 0.7585 ± 0.0029. For PSNSRPRASPAC, the protein stability index was 0.67 ± 0.039. PSPAPSGPAHHP showed a protein stability index of 0.667 ± 0.05. PSPLALRTPSFS gave a protein stability index of 0.692 ± 0.02. Work on PSPLPMYPPPTF yielded a protein stability index of 0.693 ± 0.0083. Work on PSPLPVSAPLLP yielded a protein stability index of 0.701 ± 0.039. Sequence PSPLTPAAPFPL has a protein stability index of 0.674 ± 0.056. In the case of PSPPAPPPETSP, the protein stability index is reported as 0.713 ± 0.031. Work on PSPPASTPLPPP yielded a protein stability index of 0.684 ± 0.024. PSPPCPPTDPPA gave a protein stability index of 0.624 ± 0.011. PSPPFLPPPVPL was tested, and the protein stability index was 0.685 ± 0.056. Work on PSPPHLHLHLAP yielded a protein stability index of 0.665 ± 0.013. PSPPHPPPPLFP gave a protein stability index of 0.706 ± 0.02. For PSPPLCPPRFSP, the protein stability index was 0.652 ± 0.025. With PSPPLPPLPPSP the protein stability index was 0.575 ± 0.053. In the case of PSPPPAPLHSPL, the protein stability index is reported as 0.704 ± 0.058. PSPPPAPPPQPS was tested, and the protein stability index was 0.678 ± 0.052. PSPPPLPSPPSL was tested, and the protein stability index was 0.738 ± 0.087. In the case of PSPPPTPPPFLP, the protein stability index is reported as 0.71 ± 0.054. In the case of PSPPRKHAPFRP, the protein stability index is reported as 0.737 ± 0.0085. For PSPRPSPPLPSP, the protein stability index was 0.647 ± 0.076. With PSPSPLPASFRL the protein stability index was 0.683 ± 0.11. For PSPSPPPCPYPP, the protein stability index was 0.677 ± 0.054. Sequence PSPSSPLPPPPP has a protein stability index of 0.794 ± 0.035. With PSPTPSPPFPAP the protein stability index was 0.721 ± 0.038. In the case of PSPTRLPPPSPH, the protein stability index is reported as 0.757 ± 0.008. With PSPYFPVPLLPS the protein stability index was 0.701 ± 0.028. PSQKRITDPRET showed a protein stability index of 0.683 ± 0.047. PSRDGNLYAQCR showed a protein stability index of 0.618 ± 0.048. For PSRPTLLTPLSP, the protein stability index was 0.695 ± 0.045. PSRRFLPEKRSL showed a protein stability index of 0.678 ± 0.0039. PSRRPPLPLPRP was tested, and the protein stability index was 0.714 ± 0.013. With PSRRPPPPPFLP the protein stability index was 0.7 ± 0.036. PSRTSPLSHIPF was tested, and the protein stability index was 0.676 ± 0.023. PSSFPDPFSPSL was tested, and the protein stability index was 0.735 ± 0.037. With PSSHPLLPPPPP the protein stability index was 0.67 ± 0.06. Work on PSSPHTAIRHPL yielded a protein stability index of 0.671 ± 0.02. With PSSPIFPFSSLP the protein stability index was 0.599 ± 0.15. PSSPTYVPPSFL showed a protein stability index of 0.6754 ± 0.0022. For PSSSSWPPPRHP, the protein stability index was 0.831 ± 0.18. PSSSYLSCLPSW was tested, and the protein stability index was 0.703 ± 0.083. PSSTSPQPRLCF showed a protein stability index of 0.686 ± 0.027. PSTPPPRLHPSS showed a protein stability index of 0.642 ± 0.032. PSVPSAAPPSSA showed a protein stability index of 0.703 ± 0.02. PSVRQSSPRFLH showed a protein stability index of 0.667 ± 0.067. In the case of PSYSPPPHPVHR, the protein stability index is reported as 0.686 ± 0.05. For PTFRLGGYYRKS, the protein stability index was 0.703 ± 0.055. Sequence PTGLTNPPPCPQ has a protein stability index of 0.716 ± 0.11. Sequence PTHGPSPPNVAT has a protein stability index of 0.6595 ± 0.00038. Sequence PTIKPSPRFPLS has a protein stability index of 0.71 ± 0.021. For PTKLFDTRPRGA, the protein stability index was 0.679 ± 0.05. For PTLLRRPLPNLG, the protein stability index was 0.73 ± 0.02. For PTLPPPPRPPAP, the protein stability index was 0.657 ± 0.016. With PTLPTPAARPGR the protein stability index was 0.696 ± 0.016. Sequence PTLSPPSPPPPA has a protein stability index of 0.665 ± 0.035. PTPGRSPKRLPE was tested, and the protein stability index was 0.752 ± 0.026. PTPLPHTRATPT was tested, and the protein stability index was 0.778 ± 0.015. In the case of PTPNPGHTRACL, the protein stability index is reported as 0.763 ± 0.23. With PTPPCPLVPPRP the protein stability index was 0.72 ± 0.074. PTPPTPTISPTP gave a protein stability index of 0.651 ± 0.0052. For PTQFSSAADLSA, the protein stability index was 0.637 ± 0.062. With PTRERPSDQPYP the protein stability index was 0.701 ± 0.04. For PTRGLTARPFLW, the protein stability index was 0.62 ± 0.042. Sequence PTRQKRPPYRIK has a protein stability index of 0.711 ± 0.031. For PTRRPDLFYYSS, the protein stability index was 0.74 ± 0.017. PTRSPPPAAIAS gave a protein stability index of 0.697 ± 0.14. In the case of PTSLLPLRLLNS, the protein stability index is reported as 0.61185 ± 0.00055. Work on PTSLPPLSRPPP yielded a protein stability index of 0.723 ± 0.029. In the case of PTSPLVFFFVPL, the protein stability index is reported as 0.624 ± 0.037. In the case of PTSQRPFFLISP, the protein stability index is reported as 0.704 ± 0.015. Work on PTTTPHPHIATP yielded a protein stability index of 0.711 ± 0.14. PTVFMNIQKQNI was tested, and the protein stability index was 0.678 ± 0.042. Sequence PTVNIDSQSRSP has a protein stability index of 0.692 ± 0.079. With PVASFLACSIAG the protein stability index was 0.602 ± 0.032. With PVCELCLITLRG the protein stability index was 0.59 ± 0.053. With PVDDFVCLEVDS the protein stability index was 0.688 ± 0.061. PVFPSFGVSEFV showed a protein stability index of 0.753 ± 0.059. In the case of PVFTLLPTCYCA, the protein stability index is reported as 0.6073 ± 0.0025. For PVGDDDRTIPRL, the protein stability index was 0.661 ± 0.043. In the case of PVGEEPRPRNVR, the protein stability index is reported as 0.674 ± 0.063. Work on PVGWVEASLSPG yielded a protein stability index of 0.721 ± 0.027. For PVLFSPPSPFFP, the protein stability index was 0.708 ± 0.083. Sequence PVLGRTLAFRSL has a protein stability index of 0.659 ± 0.057. In the case of PVLHSPHSLPPR, the protein stability index is reported as 0.734 ± 0.11. For PVLLPPCCLAIV, the protein stability index was 0.548 ± 0.026. Work on PVLRPPTPPRFR yielded a protein stability index of 0.661 ± 0.028. PVPKAPPCNRRR showed a protein stability index of 0.663 ± 0.0099. PVPLRPLSPPPP showed a protein stability index of 0.68 ± 0.0099. For PVPPPLSPLPTP, the protein stability index was 0.703 ± 0.11. Work on PVPPRLPLPAPL yielded a protein stability index of 0.757 ± 0.051. With PVSPPLPTPPPP the protein stability index was 0.616 ± 0.056. In the case of PVSVCADRPPAP, the protein stability index is reported as 0.715 ± 0.063. PVVFAGLLLHGH gave a protein stability index of 0.694 ± 0.042. PWGGLGTGWGRR gave a protein stability index of 0.75 ± 0.035. Work on PWGSGSDRAGRG yielded a protein stability index of 0.746 ± 0.062. PWVLSLASGSPS gave a protein stability index of 0.687 ± 0.026. PYAPYRPQVDSS showed a protein stability index of 0.708 ± 0.018. Work on PYFQASLSCLPS yielded a protein stability index of 0.744 ± 0.036.
